Laboratory results: patent US20200085917A1

Columns and labels:
Assay in all cases: GST pull-down, LC-MS/MS
[1] = target: Prdx3_IPI:IPI00116192.1 (mouse) (UniProt P20108)
[2] = target: Slc25a27_IPI:IPI00108998.1 (mouse) (UniProt Q9D6D0)
[3] = target: Cplx1_IPI:IPI00132278.1 (mouse) (UniProt P63040)
[4] = target: Fahd1_IPI:IPI00468850.1 (mouse) (UniProt Q8R0F8)
[5] = target: Coq5_IPI:IPI00379695.2 (mouse) (UniProt Q9CXI0)
[6] = target: Asah1_IPI:IPI00125266.1 (mouse) (UniProt Q9WV54)
[7] = target: Gnb3_IPI:IPI00116938.1 (mouse) (UniProt Q61011)
[8] = target: Hmgcl_IPI:IPI00379694.4 (mouse) (UniProt P38060)
[9] = target: Nubpl_IPI:IPI00317709.1 (mouse) (UniProt Q9CWD8)
Chain of Nubpl_IPI:IPI00317709.1 (mouse) (Q9CWD8 39-319 limits assumed): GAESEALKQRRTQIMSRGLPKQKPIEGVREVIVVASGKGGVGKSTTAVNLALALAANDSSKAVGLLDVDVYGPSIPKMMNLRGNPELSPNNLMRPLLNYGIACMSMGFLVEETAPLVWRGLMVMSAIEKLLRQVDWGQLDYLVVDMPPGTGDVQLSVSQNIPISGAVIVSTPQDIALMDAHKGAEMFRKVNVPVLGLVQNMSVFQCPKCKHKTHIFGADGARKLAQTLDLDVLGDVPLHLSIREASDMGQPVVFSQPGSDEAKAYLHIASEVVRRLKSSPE

[10] = target: Slc25a10_IPI:IPI00317074.3 (mouse) (UniProt Q9QZD8)
Chain of Slc25a10_IPI:IPI00317074.3 (mouse) (Q9QZD8 whole entry): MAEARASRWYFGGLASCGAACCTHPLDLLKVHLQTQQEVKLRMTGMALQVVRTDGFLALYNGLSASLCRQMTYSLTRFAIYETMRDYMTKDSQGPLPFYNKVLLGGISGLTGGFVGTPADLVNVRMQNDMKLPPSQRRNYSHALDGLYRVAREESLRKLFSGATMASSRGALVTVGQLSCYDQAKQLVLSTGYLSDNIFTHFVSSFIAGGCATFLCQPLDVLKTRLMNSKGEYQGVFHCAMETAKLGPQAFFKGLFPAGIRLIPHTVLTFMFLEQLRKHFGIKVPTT

[11] = target: Rtn1_IPI:IPI00395193.1 (mouse) (UniProt Q8K0T0)
Chain of Rtn1_IPI:IPI00395193.1 (mouse) (Q8K0T0 whole entry): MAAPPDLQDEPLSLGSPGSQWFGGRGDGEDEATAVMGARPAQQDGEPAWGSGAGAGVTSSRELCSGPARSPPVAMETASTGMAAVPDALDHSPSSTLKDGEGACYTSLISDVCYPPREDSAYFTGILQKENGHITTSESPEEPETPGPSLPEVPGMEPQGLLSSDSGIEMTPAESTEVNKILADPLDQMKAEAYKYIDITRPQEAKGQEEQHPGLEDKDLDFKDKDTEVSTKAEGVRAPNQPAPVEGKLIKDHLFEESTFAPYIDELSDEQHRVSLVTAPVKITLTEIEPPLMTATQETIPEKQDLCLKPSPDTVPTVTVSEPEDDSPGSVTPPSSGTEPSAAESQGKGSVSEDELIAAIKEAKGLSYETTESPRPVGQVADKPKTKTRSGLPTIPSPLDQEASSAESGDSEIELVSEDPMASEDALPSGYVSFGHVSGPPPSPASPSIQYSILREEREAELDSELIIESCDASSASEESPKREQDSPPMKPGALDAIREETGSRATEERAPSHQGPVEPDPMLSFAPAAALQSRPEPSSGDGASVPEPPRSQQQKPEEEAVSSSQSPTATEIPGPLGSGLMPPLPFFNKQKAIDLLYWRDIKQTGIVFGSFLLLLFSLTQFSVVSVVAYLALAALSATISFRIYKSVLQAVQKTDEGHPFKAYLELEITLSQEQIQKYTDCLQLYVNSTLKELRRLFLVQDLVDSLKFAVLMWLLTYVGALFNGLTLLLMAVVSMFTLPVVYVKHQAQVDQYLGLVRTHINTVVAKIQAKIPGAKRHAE

[12] = target: Acad8_IPI:IPI00274222.2 (mouse) (UniProt Q9D7B6)
Chain of Acad8_IPI:IPI00274222.2 (mouse) (Q9D7B6 21-413 limits assumed): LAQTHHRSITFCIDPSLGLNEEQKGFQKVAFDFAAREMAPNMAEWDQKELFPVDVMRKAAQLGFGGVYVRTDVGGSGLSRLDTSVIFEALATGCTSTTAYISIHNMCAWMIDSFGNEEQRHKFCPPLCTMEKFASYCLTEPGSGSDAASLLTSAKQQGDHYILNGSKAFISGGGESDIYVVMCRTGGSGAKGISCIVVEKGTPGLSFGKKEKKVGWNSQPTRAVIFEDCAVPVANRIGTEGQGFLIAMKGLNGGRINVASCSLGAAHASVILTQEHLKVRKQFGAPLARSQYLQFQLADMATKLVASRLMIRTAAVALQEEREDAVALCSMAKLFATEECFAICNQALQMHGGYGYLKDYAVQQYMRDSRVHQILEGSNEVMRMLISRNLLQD

[13] = target: Mtx1_IPI:IPI00112327.1 (mouse) (UniProt P47802)
Chain of Mtx1_IPI:IPI00112327.1 (mouse) (P47802 whole entry): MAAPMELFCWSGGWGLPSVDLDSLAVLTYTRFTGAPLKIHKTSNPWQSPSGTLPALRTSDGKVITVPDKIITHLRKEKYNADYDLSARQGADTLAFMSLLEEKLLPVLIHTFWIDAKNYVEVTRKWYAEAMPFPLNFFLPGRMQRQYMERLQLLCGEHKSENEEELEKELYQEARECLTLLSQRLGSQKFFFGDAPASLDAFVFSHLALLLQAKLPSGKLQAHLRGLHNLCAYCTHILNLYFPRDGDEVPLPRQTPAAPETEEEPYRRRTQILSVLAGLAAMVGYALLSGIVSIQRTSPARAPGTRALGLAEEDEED

[14] = target: Suclg2_IPI:IPI00459487.3 (mouse) (UniProt Q9Z2I8)
[15] = target: Ppt1_IPI:IPI00331318.2 (mouse) (UniProt O88531)
Chain of Ppt1_IPI:IPI00331318.2 (mouse) (O88531 28-306 limits assumed): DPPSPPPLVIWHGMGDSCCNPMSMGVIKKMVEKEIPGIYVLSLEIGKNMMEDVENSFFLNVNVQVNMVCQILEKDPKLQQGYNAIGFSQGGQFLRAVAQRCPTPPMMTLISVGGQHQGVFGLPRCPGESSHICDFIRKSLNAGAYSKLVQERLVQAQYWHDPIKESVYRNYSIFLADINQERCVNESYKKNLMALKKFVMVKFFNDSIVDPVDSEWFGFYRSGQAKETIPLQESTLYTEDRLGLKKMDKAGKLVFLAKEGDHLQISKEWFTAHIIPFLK

[16] = target: Letm1_IPI:IPI00131177.1 (mouse) (UniProt Q9Z2I0)
Chain of Letm1_IPI:IPI00131177.1 (mouse) (Q9Z2I0 115-738 limits assumed): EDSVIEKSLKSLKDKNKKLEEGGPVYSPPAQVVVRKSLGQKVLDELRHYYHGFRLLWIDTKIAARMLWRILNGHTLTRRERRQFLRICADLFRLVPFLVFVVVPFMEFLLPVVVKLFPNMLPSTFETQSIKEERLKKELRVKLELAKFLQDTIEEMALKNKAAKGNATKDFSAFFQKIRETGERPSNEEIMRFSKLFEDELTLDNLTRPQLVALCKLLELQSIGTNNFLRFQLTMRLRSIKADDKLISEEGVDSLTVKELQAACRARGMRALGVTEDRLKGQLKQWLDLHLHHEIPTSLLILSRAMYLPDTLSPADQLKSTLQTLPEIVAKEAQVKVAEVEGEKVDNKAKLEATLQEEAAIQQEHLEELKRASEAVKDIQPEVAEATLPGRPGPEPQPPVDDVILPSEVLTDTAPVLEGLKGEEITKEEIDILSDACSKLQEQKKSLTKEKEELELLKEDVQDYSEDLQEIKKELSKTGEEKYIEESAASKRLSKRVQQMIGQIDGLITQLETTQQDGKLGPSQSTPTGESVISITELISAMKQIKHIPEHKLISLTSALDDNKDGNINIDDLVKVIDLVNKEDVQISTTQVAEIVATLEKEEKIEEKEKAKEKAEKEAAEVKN

[17] = target: Tim23 (endogenous, mouse forebrain mitochondria) (mouse) (UniProt Q9WTQ8)
Chain of Tim23 (endogenous, mouse forebrain mitochondria) (mouse) (Q9WTQ8 whole entry): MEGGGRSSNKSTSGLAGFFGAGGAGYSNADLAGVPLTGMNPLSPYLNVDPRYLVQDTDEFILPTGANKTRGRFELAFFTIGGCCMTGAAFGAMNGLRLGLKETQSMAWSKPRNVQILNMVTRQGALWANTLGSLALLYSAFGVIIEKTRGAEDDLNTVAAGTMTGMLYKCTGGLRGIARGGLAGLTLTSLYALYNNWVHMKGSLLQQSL

[18] = target: Hint2_IPI:IPI00133034.3 (mouse) (UniProt Q9D0S9)
Chain of Hint2_IPI:IPI00133034.3 (mouse) (Q9D0S9 18-163 limits assumed): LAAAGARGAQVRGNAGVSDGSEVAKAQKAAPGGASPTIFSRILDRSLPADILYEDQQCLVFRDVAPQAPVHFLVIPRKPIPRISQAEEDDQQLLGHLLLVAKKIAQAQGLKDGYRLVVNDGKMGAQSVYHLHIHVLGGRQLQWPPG

Chain of Prdx3_IPI:IPI00116192.1 (mouse) (P20108 63-257 limits assumed): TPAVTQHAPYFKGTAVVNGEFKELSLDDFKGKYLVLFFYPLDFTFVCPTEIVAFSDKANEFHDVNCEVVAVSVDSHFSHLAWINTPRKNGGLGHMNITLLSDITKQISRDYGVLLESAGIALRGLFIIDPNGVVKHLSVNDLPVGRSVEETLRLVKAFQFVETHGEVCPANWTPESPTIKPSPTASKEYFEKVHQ
Chain of Cplx1_IPI:IPI00132278.1 (mouse) (P63040 whole entry): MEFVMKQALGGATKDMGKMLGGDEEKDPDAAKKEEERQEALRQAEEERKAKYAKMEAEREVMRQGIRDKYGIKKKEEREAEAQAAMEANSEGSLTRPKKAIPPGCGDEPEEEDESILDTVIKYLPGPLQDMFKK
Chain of Coq5_IPI:IPI00379695.2 (mouse) (Q9CXI0 50-327 limits assumed): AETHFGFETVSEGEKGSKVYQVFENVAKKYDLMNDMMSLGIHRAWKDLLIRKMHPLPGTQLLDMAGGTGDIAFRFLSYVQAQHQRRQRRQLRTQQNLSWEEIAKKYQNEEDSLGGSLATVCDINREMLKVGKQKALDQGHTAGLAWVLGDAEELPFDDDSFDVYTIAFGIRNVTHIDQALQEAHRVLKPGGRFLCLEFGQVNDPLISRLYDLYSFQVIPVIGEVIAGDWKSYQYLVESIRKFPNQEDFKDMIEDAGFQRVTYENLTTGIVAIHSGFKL
Chain of Slc25a27_IPI:IPI00108998.1 (mouse) (Q9D6D0 whole entry): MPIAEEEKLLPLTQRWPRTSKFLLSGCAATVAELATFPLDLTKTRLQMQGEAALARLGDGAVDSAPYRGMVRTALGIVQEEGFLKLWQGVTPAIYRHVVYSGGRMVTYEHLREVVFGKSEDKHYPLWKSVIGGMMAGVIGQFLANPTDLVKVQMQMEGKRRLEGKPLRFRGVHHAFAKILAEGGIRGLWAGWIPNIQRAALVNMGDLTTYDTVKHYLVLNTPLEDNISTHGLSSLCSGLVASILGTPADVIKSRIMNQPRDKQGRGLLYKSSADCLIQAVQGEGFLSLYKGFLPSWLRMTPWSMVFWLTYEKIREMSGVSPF
Chain of Fahd1_IPI:IPI00468850.1 (mouse) (Q8R0F8 25-221 limits assumed): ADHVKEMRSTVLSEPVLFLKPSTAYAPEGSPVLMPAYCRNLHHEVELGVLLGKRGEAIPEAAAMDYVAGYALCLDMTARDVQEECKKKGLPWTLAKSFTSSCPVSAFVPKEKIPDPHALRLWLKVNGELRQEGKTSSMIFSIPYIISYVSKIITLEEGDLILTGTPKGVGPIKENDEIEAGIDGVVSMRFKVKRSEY
Chain of Asah1_IPI:IPI00125266.1 (mouse) (Q9WV54 19-394 limits assumed): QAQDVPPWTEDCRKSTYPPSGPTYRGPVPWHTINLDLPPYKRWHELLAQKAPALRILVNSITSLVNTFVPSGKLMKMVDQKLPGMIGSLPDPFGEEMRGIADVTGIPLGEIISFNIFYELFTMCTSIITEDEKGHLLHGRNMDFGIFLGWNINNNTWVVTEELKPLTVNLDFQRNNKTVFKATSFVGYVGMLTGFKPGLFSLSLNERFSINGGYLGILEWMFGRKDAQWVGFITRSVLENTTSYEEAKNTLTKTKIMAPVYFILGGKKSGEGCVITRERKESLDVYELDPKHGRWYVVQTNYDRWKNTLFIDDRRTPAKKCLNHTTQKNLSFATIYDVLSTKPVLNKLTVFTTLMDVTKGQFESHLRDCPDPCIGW

No. of total peptides [1]: 3 peptides
No. of unique peptides [1]: 3 peptides
No. of total peptides [2]: 2 peptides
No. of unique peptides [2]: 2 peptides
No. of total peptides [3]: 6 peptides
No. of unique peptides [3]: 4 peptides
No. of total peptides [4]: 1 peptides
No. of unique peptides [4]: 1 peptides
No. of total peptides [5]: 2 peptides
No. of unique peptides [5]: 2 peptides
No. of total peptides [6]: 3 peptides
No. of unique peptides [6]: 3 peptides
No. of total peptides [7]: 1 peptides
No. of unique peptides [7]: 1 peptides
No. of total peptides [8]: 1 peptides
No. of unique peptides [8]: 1 peptides
No. of total peptides [9]: 1 peptides
No. of unique peptides [9]: 1 peptides
No. of total peptides [10]: 1 peptides
No. of unique peptides [10]: 1 peptides
No. of total peptides [11]: 1 peptides
No. of unique peptides [11]: 1 peptides
No. of total peptides [12]: 1 peptides
No. of unique peptides [12]: 1 peptides
No. of total peptides [13]: 3 peptides
No. of unique peptides [13]: 3 peptides
No. of total peptides [14]: 2 peptides
No. of unique peptides [14]: 2 peptides
No. of total peptides [15]: 1 peptides
No. of unique peptides [15]: 1 peptides
No. of total peptides [16]: 4 peptides
No. of unique peptides [16]: 4 peptides
No. of total peptides [17]: 1 peptides
No. of unique peptides [17]: 1 peptides
No. of total peptides [18]: 1 peptides
No. of unique peptides [18]: 1 peptides
Substance: GST-Httex1-97Q (from UniProt P08515 1-218; P42858 1-88)
